{"source": "paper PMC8263569", "biological_target": "P622-G772A/S773A (ADGRG2-P622 with G772 and S773 of the ECL2 changed to alanine) (human) (UniProt Q8IZP9)", "sequence (Q8IZP9 622-1017 G772A/S773A)": "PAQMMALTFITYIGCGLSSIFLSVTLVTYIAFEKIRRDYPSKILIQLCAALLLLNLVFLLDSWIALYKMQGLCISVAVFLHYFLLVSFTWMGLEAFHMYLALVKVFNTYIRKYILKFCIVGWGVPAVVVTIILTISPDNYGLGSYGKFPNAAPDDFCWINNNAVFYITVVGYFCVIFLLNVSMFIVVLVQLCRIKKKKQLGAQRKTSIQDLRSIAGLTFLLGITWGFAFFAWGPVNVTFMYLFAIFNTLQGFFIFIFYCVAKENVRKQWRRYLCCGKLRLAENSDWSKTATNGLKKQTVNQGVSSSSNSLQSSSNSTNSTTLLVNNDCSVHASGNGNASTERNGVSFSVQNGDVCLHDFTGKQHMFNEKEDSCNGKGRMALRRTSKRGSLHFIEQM", "data": [{"substance": "synthetic P-15 (15-amino acid long Stachel peptide of ADGRG2)", "values": [{"measurement": "CRE-luciferase reporter response to P-15, reduction against P622-CWI", "value": 30, "unit": "%"}, {"measurement": "SRE-luciferase reporter response to P-15, reduction against P622-CWI", "value": 40, "unit": "%"}]}]}
